Measured values published in the supplement of paper PMC10126150.
± gives the standard deviation of the averaged measurements.

test system: ATP; assay: switch fluorescence ratio, 500 uM ATP over buffer (Cy3 cluster intensity, sum of 5 cycles each) (fold (ratio)); higher = stronger signal-on switching upon ATP binding; sequences stand for … in TCGTCGGCAGCGTCAGATGTGTATAAGAGACAGTTTTTTTTTTTTTTTTTTTTTTTTT…TC; settings: aptamer strand: ATP DNA aptamer (quencher-CACCTGGGGGAGTATTGCGGAGGAAGG + anchor), 100 nM annealed; ATP concentration: 500 uM
Outline: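 Imaging in selection buffer was followed by imaging after 15 min with 500 uM ATP at 22 °C, for Cy3-labelled switching-strand clusters annealed to 100 nM quencher-labelled ATP aptamer on a modified Illumina MiSeq flow-cell. Five of these buffer/ATP cycles ran, separated by NaOH stripping and re-annealing. The fluorescence ratio per cluster is summed target-cycle over summed buffer-cycle Cy3 intensity, averaged per switch-domain sequence; clusters outside 100-1000 RFU were removed.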
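Note: ATP exposure 15 min at 22 °C before imaging.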

Row | Sequence | switch fluorescence ratio
1 | GGGGGATACG | 0.997 ± 0.033
2 | CGCTACGGAG | 1.02 ± 0.029
3 | TGGGTAAATT | 0.983 ± 0.014
4 | CGACGCGGTA | 3.14 ± 0.059
5 | GCTCAACAGA | 1.022 ± 0.0057
6 | TGAGGGTTCT | 0.979 ± 0.02
7 | TGCGGTTATG | 1.07 ± 0.051
8 | ATATATTTAT | 1.022 ± 0.0085
9 | CGGGGCCATG | 1.02 ± 0.068
10 | ATACTGTGTT | 1.014 ± 0.0084
11 | TATGAGAGGC | 1.04 ± 0.035
12 | CTCGGAGATT | 1.01 ± 0.018
13 | CATAGATGGA | 1.03 ± 0.036
14 | GGGGTGAGTT | 0.931 ± 0.072
15 | ACGTATTCAT | 1.11 ± 0.013
16 | ACTGTTTTGA | 0.962 ± 0.01
17 | CTTAATTTTG | 0.973 ± 0.027
18 | GATGGCTGCG | 1.04 ± 0.039
19 | CCGATAGGCA | 1.124 ± 0.0038
20 | GGGGGCACAG | 0.992 ± 0.012
21 | CGCATTCGTG | 1.08 ± 0.029
22 | CGTATGGGAA | 1.026 ± 0.0082

Row | Sequence | switch fluorescence ratio
23 | TTACGCATTT | 1.12 ± 0.08
24 | ATTTACATAT | 1.03 ± 0.015
25 | GGGGTTAGGA | 0.979 ± 0.019
26 | AAGGGACAGC | 1.03 ± 0.021
27 | ATTAGTTATA | 0.975 ± 0.029
28 | AAGGTATGTC | 1.01 ± 0.063
29 | GGTGGGGAAA | 1.0255 ± 0.00086
30 | AATTGATAGG | 0.982 ± 0.041
31 | CGAATAAGAA | 0.9383 ± 0.0074
32 | ATCGTATTGT | 0.993 ± 0.03
33 | GCTCGATGTG | 1 ± 0.015
34 | GGAGCGGCGG | 1.02 ± 0.069
35 | CCTAGTGGGG | 1.04 ± 0.06
36 | GGTACAGGAC | 1.06 ± 0.047
37 | TAGTGCCTGT | 0.995 ± 0.028
38 | GACCTTAATT | 1.01 ± 0.025
39 | TTAGTTTTAT | 1 ± 0.027
40 | GGGTTTTTTT | 0.998 ± 0.044
41 | GGGACAGTGG | 1 ± 0.015
42 | GGGCCTCGGA | 0.988 ± 0.042
43 | GAACCGTGTT | 0.967 ± 0.036
44 | AGAACCTAGT | 0.996 ± 0.031

Row | Sequence | switch fluorescence ratio
45 | GTTTATACCG | 0.996 ± 0.015
46 | AAGGGCGATT | 1.02 ± 0.055
47 | GCCTGTTTGT | 0.983 ± 0.02
48 | TCGTAAAGGA | 1.03 ± 0.043
49 | TTATGATGGA | 0.991 ± 0.013
50 | GCGTCGGGGA | 1 ± 0.047
51 | GGGCTATTTA | 1 ± 0.011
52 | TTAGAAAAGA | 1 ± 0.033
53 | AGTTGGGGTG | 0.989 ± 0.034
54 | TTCGGGCAGG | 1.06 ± 0.054
55 | GTGTATCGAT | 1.003 ± 0.0081
56 | GTTTGTTAGG | 1.012 ± 0.0095
57 | TATAGGGATT | 0.984 ± 0.015
58 | TTCTATTTCT | 0.9872 ± 0.0039
59 | TTAAAAATTT | 0.976 ± 0.025
60 | GGATACGGGA | 1.05 ± 0.084
61 | GCCGGAAGAA | 1.05 ± 0.037
62 | TGAGAGATTT | 0.984 ± 0.011
63 | CGTGAGAATG | 0.997 ± 0.026
64 | TGTAAGGGTG | 0.974 ± 0.065
65 | TCCAGTTGTA | 0.99 ± 0.019
66 | CCTGTGATTC | 1.23 ± 0.058

Row | Sequence | switch fluorescence ratio
67 | AAATTTTTC | 1 ± 0.021
68 | GCTGGGGTTA | 0.996 ± 0.019
69 | CGCGGGGCAC | 1.062 ± 0.0025
70 | ATAATAGGGA | 0.982 ± 0.014
71 | GACGCATATG | 2.03 ± 0.098
72 | TGGGTTCAGG | 1 ± 0.015
73 | AAAGGAGATT | 0.996 ± 0.028
74 | CCTGGGAGGA | 1.012 ± 0.0014
75 | GTAATGTGGT | 0.967 ± 0.024
76 | AGTGCTGTTC | 0.929 ± 0.082
77 | CTTAGTTTCG | 1.035 ± 0.0071
78 | AGATTTTGTT | 0.975 ± 0.017
79 | GGTCAGGTGA | 0.972 ± 0.073
80 | TGGAGTAATT | 1.06 ± 0.063
81 | TGGGGGAGCC | 1.03 ± 0.041
82 | GGGTGTGGAG | 1.01 ± 0.012
83 | TGATTGCCCG | 0.9376 ± 0.0077
84 | TCGGGGGGTT | 0.998 ± 0.034
85 | TATACGTGTG | 1.031 ± 0.0043
